From PMC6335420, “The cell cycle regulator GpsB functions as cytosolic adaptor for multiple cell wall enzymes” (Nature Communications, 2019)
Changes are numbered by the printed parent chain. No end group written: not given here.

T1: BsPBP1_(1-32)^Ser7Ala, TAMRA-labelled at position 16 (B. subtilis, UniProt P39793 1-32, Ser16Cys | Ser7Ala, TAMRA (maleimide) at position 16)
T1 construct: PBP1, Bacillus subtilis, residues 1-32; source: E. coli, His-tagged MBP fusion purified (Ni-NTA), labelled, TEV-cleaved, ultrafiltration
T1 peptide (looked up): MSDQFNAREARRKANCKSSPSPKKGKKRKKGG

T2: BsPBP1_(1-32)^Arg8Lys, TAMRA-labelled at position 16 (B. subtilis, UniProt P39793 1-32, Ser16Cys | Arg8Lys, TAMRA (maleimide) at position 16)
T2 construct: PBP1, Bacillus subtilis, residues 1-32; also called BsPBP1^Arg8Lys; source: E. coli, His-tagged MBP fusion purified (Ni-NTA), labelled, TEV-cleaved, ultrafiltration
T2 peptide (looked up): T1 peptide (looked up) with A7S, R8K

T3: BsPBP1_(1-32)^Arg8Ala, TAMRA-labelled at position 16 (B. subtilis, UniProt P39793 1-32, Ser16Cys | Arg8Ala, TAMRA (maleimide) at position 16)
T3 construct: PBP1, Bacillus subtilis, residues 1-32; also called BsPBP1^Arg8Ala; source: E. coli, His-tagged MBP fusion purified (Ni-NTA), labelled, TEV-cleaved, ultrafiltration
T3 peptide (looked up): T1 peptide (looked up) with A7S, R8A

T4: BsPBP1_(1-32)^Ala10Pro, TAMRA-labelled at position 16 (B. subtilis, UniProt P39793 1-32, Ser16Cys | Ala10Pro, TAMRA (maleimide) at position 16)
T4 construct: PBP1, Bacillus subtilis, residues 1-32; source: E. coli, His-tagged MBP fusion purified (Ni-NTA), labelled, TEV-cleaved, ultrafiltration
T4 peptide (looked up): T1 peptide (looked up) with A7S, A10P

T5: BsPBP1_(1-32)^Arg11Ala, TAMRA-labelled at position 16 (B. subtilis, UniProt P39793 1-32, Ser16Cys | Arg11Ala, TAMRA (maleimide) at position 16)
T5 construct: PBP1, Bacillus subtilis, residues 1-32; also called BsPBP1^Arg11Ala; source: E. coli, His-tagged MBP fusion purified (Ni-NTA), labelled, TEV-cleaved, ultrafiltration
T5 peptide (looked up): T1 peptide (looked up) with A7S, R11A

T6: full-length BsGpsB (Bacillus subtilis GpsB) (B. subtilis, UniProt P0CI74 1-98)
T6 construct: GpsB, Bacillus subtilis; purification of the full-length protein is not described here; source: E. coli BL21(DE3) used for recombinant protein production)
T6 sequence (looked up): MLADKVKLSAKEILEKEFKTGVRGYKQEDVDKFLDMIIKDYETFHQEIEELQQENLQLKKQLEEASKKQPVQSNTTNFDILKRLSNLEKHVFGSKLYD

T7: BsGpsB_(5-64) (B. subtilis 168, UniProt P0CI74 5-64)
T7 construct: GpsB, Bacillus subtilis 168, residues 5-64; two molecules in the asymmetric unit; also called N-terminal domain of BsGpsB, termini truncated; source: E. coli, purified (Ni-NTA, TEV, Superdex 75); not shown: His6, N-terminal, cleaved
T7 sequence (looked up): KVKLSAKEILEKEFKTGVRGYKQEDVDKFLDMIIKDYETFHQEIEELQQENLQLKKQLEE

T8: SpPBP2a_(23-45)^Arg31Lys,Arg33Lys, TAMRA-labelled (S. pneumoniae R6, UniProt Q8DNB6 23-45, Gly43 to cysteine | Arg31Lys | Arg33Lys, TAMRA (maleimide) label)
T8 construct: also called SpPBP2a^Arg31Lys,Arg33Lys; source: E. coli, His-tagged MBP fusion purified (Ni-NTA), labelled, TEV-cleaved, ultrafiltration
T8 peptide: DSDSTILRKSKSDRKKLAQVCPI

T9: SpPBP2a_(23-45)^Arg31Lys, TAMRA-labelled (S. pneumoniae R6, UniProt Q8DNB6 23-45, Gly43 to cysteine | Arg31Lys, TAMRA (maleimide) label)
T9 construct: also called SpPBP2a^Arg31Lys; source: E. coli, His-tagged MBP fusion purified (Ni-NTA), labelled, TEV-cleaved, ultrafiltration
T9 peptide: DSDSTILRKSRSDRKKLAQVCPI

T10: SpPBP2a_(23-45), TAMRA-labelled (S. pneumoniae R6, UniProt Q8DNB6 23-45, Gly43 to cysteine, TAMRA (maleimide) label)
T10 construct: source: E. coli, His-tagged MBP fusion purified (Ni-NTA), labelled, TEV-cleaved, ultrafiltration
T10 peptide: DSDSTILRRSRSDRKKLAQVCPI

T11: full-length BsPBP1 (Bacillus subtilis PBP1) (B. subtilis, UniProt P39793 1-914)
T11 construct: also called wild-type BsPBP1; source: E. coli, purified from membrane pellets (His select resin, thrombin, Superdex S200)
T11 sequence (looked up): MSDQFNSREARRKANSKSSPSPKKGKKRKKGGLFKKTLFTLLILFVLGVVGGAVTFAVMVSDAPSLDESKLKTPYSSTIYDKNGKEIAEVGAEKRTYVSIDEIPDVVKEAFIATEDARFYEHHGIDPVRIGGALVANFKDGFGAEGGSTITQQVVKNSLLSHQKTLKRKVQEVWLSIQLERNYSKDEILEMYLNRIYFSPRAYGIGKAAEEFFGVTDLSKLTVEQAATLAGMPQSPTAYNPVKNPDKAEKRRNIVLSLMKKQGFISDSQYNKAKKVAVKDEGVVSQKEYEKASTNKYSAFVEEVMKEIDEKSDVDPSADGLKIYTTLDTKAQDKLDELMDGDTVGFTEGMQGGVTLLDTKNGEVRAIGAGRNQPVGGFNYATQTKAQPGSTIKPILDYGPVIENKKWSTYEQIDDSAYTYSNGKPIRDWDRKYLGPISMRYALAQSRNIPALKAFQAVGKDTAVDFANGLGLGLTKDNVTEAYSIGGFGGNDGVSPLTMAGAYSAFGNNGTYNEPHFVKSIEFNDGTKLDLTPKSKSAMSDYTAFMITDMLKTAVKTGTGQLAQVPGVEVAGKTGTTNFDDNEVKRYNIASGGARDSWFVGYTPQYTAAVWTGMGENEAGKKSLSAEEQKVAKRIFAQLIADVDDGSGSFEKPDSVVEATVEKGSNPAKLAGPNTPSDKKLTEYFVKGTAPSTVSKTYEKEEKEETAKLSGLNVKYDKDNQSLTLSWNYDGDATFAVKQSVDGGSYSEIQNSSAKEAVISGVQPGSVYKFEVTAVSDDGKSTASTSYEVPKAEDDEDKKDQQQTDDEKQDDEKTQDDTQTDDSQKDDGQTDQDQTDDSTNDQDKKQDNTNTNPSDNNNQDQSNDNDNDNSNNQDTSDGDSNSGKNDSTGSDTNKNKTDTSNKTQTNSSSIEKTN

B1: BsGpsB_(1-68) (domain or fragment, B. subtilis, UniProt P0CI74 1-68, looked up)
chain: MLADKVKLSAKEILEKEFKTGVRGYKQEDVDKFLDMIIKDYETFHQEIEELQQENLQLKKQLEEASKK
notes: GpsB, Bacillus subtilis, residues 1-68; also called N-terminal domain of BsGpsB; source: E. coli, purified (Ni-NTA, thrombin, size exclusion)
B2: BsYpbE_(1-21), fluorescein-labelled (peptide)
peptide: MTNMSRVERRKAQNLYEDQNA
modifications: also: fluorescein label, position not given here
notes: also called 21-residue fragment of the cytoplasmic domain of BsYpbE; source: synthetic peptide
B3: BsPBP1_(1-32), TAMRA-labelled at position 16 (peptide, UniProt P39793 1-32, looked up)
peptide: MSDQFNSREARRKANC(TAMRA (maleimide))KSSPSPKKGKKRKKGG
notes: PBP1, Bacillus subtilis, residues 1-32; also called BsPBPA1_(1-32); BsPBP1A_(1-32); source: E. coli, His-tagged MBP fusion purified (Ni-NTA), labelled, TEV-cleaved, ultrafiltration
B4: SpGpsB_(4-63) (domain or fragment, S. pneumoniae R6, UniProt Q8DR57 4-63, looked up)
chain: IIFSAKDIFEQEFGREVRGYNKVEVDEFLDDVIKDYETYAALVKSLRQEIADLKEELTRK
notes: GpsB, Streptococcus pneumoniae R6, residues 4-63; also called slightly truncated form of the N-terminal domain of SpGpsB; source: E. coli, purified (Ni-NTA, TEV, Superdex 75); not shown: His6, N-terminal, cleaved
B5: BsPBP1_(1-17) (peptide, UniProt P39793 1-17, looked up)
peptide: MSDQFNSREARRKANSK
notes: PBP1, Bacillus subtilis, residues 1-17; also called first 17 amino acids of BsPBP1; source: synthetic peptide
B6: SpGpsB_(1-63) (domain or fragment)
chain: MASIIFSAKDIFEQEFGREVRGYNKVEVDEFLDDVIKDYETYAALVKSLRQEIADLKEELTRK
notes: GpsB, Streptococcus pneumoniae R6, residues 1-63 (stop codon in place of Pro64); also called N-terminal domain of SpGpsB; wildtype SpGpsB_(1-63); source: E. coli, purified (Ni-NTA, thrombin, ammonium sulphate precipitation, gel filtration)
B7: SpGpsB_(1-63)^Asp33Ala (domain or fragment)
chain: B6 chain with D33A
notes: also called SpGpsB^Asp33Ala; source: E. coli, purified (Ni-NTA, thrombin, ammonium sulphate precipitation, gel filtration)
B8: BsYrrS_(Δ13-16) (natural protein)
chain: MSNNQSRYENRDANLVLNILIAIVSILIVVVAANLFINSPSSKDVSKDSETAQKQESPASGKTEKKSDEDIKDSKKDTSDSEKDSEKSSDSDSKKDDSSSKKDDSDSDSSSDSAGDGLKDAKVTEGGSSSDVEKTYENPDWKAVGTEQTGEHAATYDSSSQDWAEMLKAISYATGVSTDNMTVLWLGNNGSPQDAKGKILDKATGNKYQVTITWVDEKGWKPTKVEKLK
notes: source: E. coli BL21(DE3), purified from membranes (Ni-NTA, Superdex 200)
B9: SpPBP2a_(27-40) (peptide, UniProt Q8DNB6 27-40, looked up)
peptide: TILRRSRSDRKKLA
notes: PBP2a, Streptococcus pneumoniae, residues 27-40; also called 14-residue peptide of SpPBP2a; source: synthetic peptide

Assays:
[1] = molecular target: T1, BsPBP1_(1-32)^Ser7Ala, TAMRA-labelled …; test: fluorescence polarisation; GpsB protein titrated into fluorescently labelled peptide; 10 mM Tris.HCl pH 8.0, 250 mM NaCl, 0.1% reduced Triton X-100; fit to a 1:1 interaction model; conditions: both partners purified
[2] = molecular target: T2, BsPBP1_(1-32)^Arg8Lys, TAMRA-labelled …; test: as above; conditions: both partners purified
[3] = molecular target: T3, BsPBP1_(1-32)^Arg8Ala, TAMRA-labelled …; test: as above; conditions: both partners purified
[4] = molecular target: T4, BsPBP1_(1-32)^Ala10Pro, TAMRA-labelled …; test: as above; conditions: both partners purified
[5] = molecular target: T5, BsPBP1_(1-32)^Arg11Ala, TAMRA-labelled …; test: as above; conditions: both partners purified
[6] = molecular target: B1; test: fluorescence polarisation; conditions: both partners purified
[7] = molecular target: B1; test: fluorescence polarisation; GpsB protein titrated into fluorescently labelled peptide; 10 mM Tris.HCl pH 8.0, 250 mM NaCl, 0.1% reduced Triton X-100; fit to a 1:1 interaction model; conditions: both partners purified
[8] = molecular target: T6, full-length BsGpsB (Bacillus subtilis …); test: as above; conditions: both partners purified
[9] = molecular target: the molecule itself; test: crystal structure; co-crystallisation of GpsB N-terminal domain with PBP peptide, 1:5 molar ratio protein:peptide, room temperature
[10] = molecular target: T7, BsGpsB_(5-64); test: as above; conditions: both partners purified
[11] = molecular target: T8, SpPBP2a_(23-45)^Arg31Lys,Arg33Lys, …; test: fluorescence polarisation; conditions: both partners purified
[12] = molecular target: T9, SpPBP2a_(23-45)^Arg31Lys, TAMRA-labelled; test: fluorescence polarisation; conditions: both partners purified
[13] = molecular target: Fluorescein-SpPBP2b1-17 (S. pneumoniae R6); test: fluorescence polarisation; GpsB protein titrated into TAMRA- or fluorescein-labelled peptide; 10 mM Tris.HCl pH 8.0, 250 mM NaCl, 0.1% reduced Triton X-100; all data fitted to a 1:1 interaction model, Kd ± standard error
[14] = molecular target: T10, SpPBP2a_(23-45), TAMRA-labelled; test: fluorescence polarisation; conditions: both partners purified
[15] = molecular target: T11, full-length BsPBP1 (Bacillus subtilis …); test: SPR; conditions: both partners purified
[16] = molecular target: B4; test: crystal structure; co-crystallisation of GpsB N-terminal domain with PBP peptide, 1:5 molar ratio protein:peptide, room temperature; conditions: both partners purified

B1
fold reduction in affinity against wild type [1]: ≥ 6 fold | fold reduction in affinity against wild type [2]: ≥ 5 fold | fold reduction in affinity against wild type [3]: ≥ 5 fold | fold reduction in affinity against wild type [4]: ≥ 6 fold | fold reduction in affinity against wild type [5]: ≥ 5 fold

B2
Kd [6]: 13 µM

B3
binding result [7]: binds | binding result [8]: binds

B4
binding result [9]: binds

B5
binding result [10]: binds

B6
fold reduction in affinity against wild type [11]: > 25 fold | fold reduction in affinity against wild type [12]: 2 fold | Kd [13]: > 3600 µM

B7
fold reduction in affinity against wild type [14]: ~40 fold

B8
Kd [15]: 0.02 µM

B9
binding result [16]: binds
